This is an account of results in patent publication US20150165025A1 (ONO PHARMACEUTICAL, published 2015).

Numbering of substitutions follows the chain as printed.

For test [1], the target named is T1, CD28 fusion protein (R&D Biosystems) (human, UniProt P10747 19-152). Nature of the test: ELISA on CD28 fusion protein, goat anti-human IgG (kappa) HRP. Here is the method:
(§1) A comparison of the binding of anti-PD-1 antibodies to CD28 family members was performed by standard ELISA using four different CD28 family members to examine the specificity of binding for PD-1.
(§2) Standard ELISA procedures were performed. The anti-PD-1 human monoclonal antibodies were added at a concentration of 20 μg/ml. Goat-anti-human IgG (kappa chain-specific) polyclonal antibody conjugated with horseradish peroxidase (HRP) was used as secondary antibody.
(In general: ELISA stands for enzyme-linked immunosorbent assay.)

Test [2] concerns the target T2, cynomolgus monkey cell surface PD-1 (cynomolgus monkey, UniProt B0LAJ3 25-288).
T2 construct: also called cynomolgous monkey PD-1
Put plainly: flow cytometry on activated cynomolgus monkey PBMC, FITC-labeled anti-human IgG, MFI. Here is the method:
(§3) Activated human T-cells, monkey peripheral blood mononuclear cells (PBMC), and CHO cells transfected with PD-1 were each tested for antibody binding. Human T cells and cynomolgous PBMC were activated by […] to induce PD-1 expression on T cells prior to binding with a human anti-PD-1 monoclonal antibody. […] The cells were washed and binding was detected with a FITC-labeled anti-human IgG Ab. Flow cytometric analyses were performed using a FACScan flow cytometry (Becton Dickinson, San Jose, Calif.).
Background: A flow cytometer gives signals particle by particle.

Test [3] concerns the target T3, CTLA-4 fusion protein (R&D Biosystems) (human, UniProt P16410 37-162).
T3 sequence (looked up): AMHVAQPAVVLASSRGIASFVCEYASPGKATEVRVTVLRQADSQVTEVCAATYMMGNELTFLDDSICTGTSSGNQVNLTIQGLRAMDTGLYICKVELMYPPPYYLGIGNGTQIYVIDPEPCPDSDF
Nature of the test: ELISA on CTLA-4 fusion protein, goat anti-human IgG (kappa) HRP. Here is the method: as §1, §2

For test [4], the target named is T4, human PD-1 expressed at the cell surface (human, UniProt Q15116 25-288).
T4 construct: whole, on cells; also called hPD-1; CHO hPD-1 cells
T4 sequence (Q15116 25-288): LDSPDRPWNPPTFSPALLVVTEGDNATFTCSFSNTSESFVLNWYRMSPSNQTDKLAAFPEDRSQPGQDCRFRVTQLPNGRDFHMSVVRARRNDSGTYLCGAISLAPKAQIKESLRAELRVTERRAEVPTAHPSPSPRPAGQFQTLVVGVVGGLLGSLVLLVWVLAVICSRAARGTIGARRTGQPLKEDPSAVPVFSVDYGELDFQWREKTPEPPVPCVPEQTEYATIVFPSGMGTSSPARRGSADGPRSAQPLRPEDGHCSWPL
Put plainly: flow cytometry on CHO cells transfected with human PD-1, FITC-labeled anti-human IgG, MFI. The protocol:
as §3

The target in test [5] is T4, human PD-1 expressed at the cell surface. Nature of the test: flow cytometry on activated human T cells, FITC-labeled anti-human IgG, MFI. The protocol:
as §3

Test [6] concerns the target T5, ICOS fusion protein (R&D Biosystems) (human, UniProt Q9Y6W8 21-141).
T5 sequence (looked up): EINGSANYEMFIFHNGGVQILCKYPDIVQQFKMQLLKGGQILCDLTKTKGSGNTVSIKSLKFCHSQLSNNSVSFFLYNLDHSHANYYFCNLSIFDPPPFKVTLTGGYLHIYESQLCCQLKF
Nature of the test: ELISA on ICOS fusion protein, goat anti-human IgG (kappa) HRP. The protocol:
as §1, §2

Test [7] deals with T6, purified recombinant human PD-1 fusion protein (human, UniProt Q15116 25-170).
T6 construct: extracellular domain; Made in CHO cells; amine-coupled to a CM5 chip for Biacore
T6 sequence (Q15116 25-170): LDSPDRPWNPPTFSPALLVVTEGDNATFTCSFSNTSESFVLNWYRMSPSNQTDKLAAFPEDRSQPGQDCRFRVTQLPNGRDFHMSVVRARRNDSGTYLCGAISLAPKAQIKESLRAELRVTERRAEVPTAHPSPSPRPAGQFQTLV
Put plainly: Biacore SPR; PD-1 fusion protein on CM5 chip, antibody at 267 nM. The protocol: Anti-PD-1 antibodies were characterized for affinities and binding kinetics by Biacore analysis (Biacore AB, Uppsala, Sweden). Purified recombinant human PD-1 fusion protein was covalently linked to a CM5 chip (carboxy methyl dextran coated chip) via primary amines, using standard amine coupling chemistry and kit provided by Biacore. Binding was measured by flowing the antibodies in HBS EP buffer (provided by Biacore AB) at a concentration of 267 nM at a low rate of 50 μl/min. The antigen-antibody association kinetics was followed for 3 minutes and the dissociation kinetics was followed for 7 minutes. The association and dissociation curves were fit to a 1:1 Langmuir binding model using BIAevaluation software (Biacore AB). To minimize the effects of avidity in the estimation of the binding constants, only the initial segment of data corresponding to association and dissociation phases were used for fitting.
(SPR reads the build-up and loss of mass on a sensor chip optically.)

Test [8] deals with T4, human PD-1 expressed at the cell surface. Nature of the test: flow cytometry blocking assay on CHO/hPD-1 cells: antibody first, then FITC-labeled PD-L1 fusion protein as the blocked ligand, MFI. The protocol: (§4) PD-1 expressing CHO cells were suspended in FACS buffer (PBS with 4% fetal calf serum). […] Flow cytometric analyses were performed using a FACScan flowcytometer (Becton Dickinson, San Jose, Calif.).

The target of test [9] is T3, CTLA-4 fusion protein (R&D Biosystems). Nature of the test: standard ELISA on fusion proteins. Here is the method:
as §1, §2

In test [10] the target is T5, ICOS fusion protein (R&D Biosystems). Nature of the test: standard ELISA on fusion proteins. The protocol: as §1, §2
The target of test [11] is T1, CD28 fusion protein (R&D Biosystems). Put plainly: standard ELISA on fusion proteins. The protocol: as §1, §2
Test [12] has as its target T4, human PD-1 expressed at the cell surface. Nature of the test: flow cytometry blocking assay on CHO/PD-1 cells: antibody first, then FITC-labeled PD-L2 fusion protein as the blocked ligand, MFI. The protocol: as §4

T1 sequence (P10747 19-152): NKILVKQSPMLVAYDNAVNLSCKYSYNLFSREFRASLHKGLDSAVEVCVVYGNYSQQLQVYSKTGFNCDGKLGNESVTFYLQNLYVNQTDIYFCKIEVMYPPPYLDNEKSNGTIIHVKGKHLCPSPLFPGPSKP
T2 sequence (B0LAJ3 entry or part of it limits assumed): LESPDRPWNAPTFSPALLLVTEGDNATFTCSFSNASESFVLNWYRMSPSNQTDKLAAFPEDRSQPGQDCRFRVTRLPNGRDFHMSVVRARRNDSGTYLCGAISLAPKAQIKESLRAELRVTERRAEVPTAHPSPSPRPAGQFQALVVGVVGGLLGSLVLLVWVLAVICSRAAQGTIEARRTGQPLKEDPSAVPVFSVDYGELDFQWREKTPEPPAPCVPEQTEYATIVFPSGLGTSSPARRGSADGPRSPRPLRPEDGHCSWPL

B1: anti-PD-1 human monoclonal antibody 17D8 (antibody, V domains shown)
VH: QVQLVESGGDVVQPGGSLRLSCAASGVAFSNYGMHWVRQAPGKGLEWVAVIWYDGSNKYYADSVKGRFTISRDNSKNMLYLQMNSLRAEDTAMYYCARNDDYWGQGTLVTVSS
VL: EIVLTQSPATLSLSPGERATLSCRASQSVSSYLAWYQQKPGQAPRLIIYDASNRATGIPARFSGSGSGTDFTLTISSLEPEDFAVYYCQQRSNWPLTFGGGTKVEIK
notes: Fully human IgG with kappa light chain from a hybridoma (HuMab/KM mice)
B1: the binding result in test [1], in test [3] and in test [6] was “no binding (tested: 20 µg/ml)” throughout. For the same molecule, the figures for the “EC50 (read off the curve)” value in test [2], in test [4] and in test [5] were ~3 nM, ~10 nM and ~2 nM, respectively. For the same molecule, in [7], the Kd was determined as 0.16 nM. Also, the off-rate constant (koff) in [7] stood at 4.5e-05 s⁻¹. Moreover, the kon in [7] was found to be 256000 M⁻¹ s⁻¹.

B2: anti-PD-1 human monoclonal antibody 2D3 (antibody, V domains shown)
VH: QVQLVESGGDVVQPGRSLRLSCAASGLTFTNYGFHWVRQAPGKGLEWVAVIWYDGSKKYYADSVKGRFTISRDNSKNTLYLQMNNLRAEDTAVYYCATGDDYWGQGTLVTVSS
VL: B1 VL with I47L, A51T
notes: Fully human IgG with kappa light chain from a hybridoma
As to B2, the binding result in [1], in [3] and in test [6] was “no binding (tested: 20 µg/ml)” each time. The “EC50 (read off the curve)” value is ~1 nM in test [2] and ~0.7 nM in test [5]. Further, in test [7], the equilibrium dissociation constant (Kd) amounted to 1.2 nM. The koff in test [7] was 0.000452 s⁻¹. For the same molecule, the kon in test [7] worked out at 377000 M⁻¹ s⁻¹.

B3: anti-PD-1 human monoclonal antibody 4H1 (antibody, V domains shown)
VH: QVYLVESGGGVVQPGRSLRLSCAASGFTFSNYGMHWVRQAPGKGLEWVALIWYDGSNKYYADSVKGRFTISRDNSKNTLYLQMTSLRVEDTAVYYCASNVDHWGQGTLVTVSS
VL: B1 VL with I47L, R91S, L96R, G100Q
notes: as for B2
With B3, the binding result in [1], in test [3] and in test [6] was “no binding (tested: 20 µg/ml)” throughout. For the same molecule, the results for the “EC50 (read off the curve)” value in [2], in [4] and in test [5] were ~0.9 nM, ~3 nM and ~0.6 nM, respectively. The “IC50 (read off the curve)” value in [8] was ~2 nM.

B4: anti-PD-1 human monoclonal antibody 5C4 (antibody, V domains shown)
VH: QVQLVESGGGVVQPGRSLRLDCKASGITFSNSGMHWVRQAPGKGLEWVAVIWYDGSKRYYADSVKGRFTISRDNSKNTLFLQMNSLRAEDTAVYYCATNDDYWGQGTLVTVSS
VL: B1 VL with I47L, R91S, L96R, G100Q
notes: Fully human IgG with kappa light chain from a hybridoma; also called 5C4-IgG1; 5C4-IgG4
In the case of B4, in test [2], the concentration for a half-maximal effect (EC50 (read off the curve)) was ~1 nM. Further, the binding result in test [3] and in test [6] was “no binding (tested: 20 µg/ml)” each time.

B5: anti-PD-1 human monoclonal antibody 7D3 (antibody, V domains shown)
VH: B2 VH with D10G, A23T, A24T, L27I, T30S, N31S, I70L, N74D, N85S, A97V
VL: B1 VL with I47L
notes: as for B2
Turning to B5, the binding result in test [9], in [10] and in test [11] was “no binding (tested: 20 µg/ml)” throughout.

B6: anti-PD-1 human monoclonal antibody 4A11 (antibody, V domains shown)
VH: QLQLQESGPGLVKPSETLSLTCTVSGGSLSRSSFFWGWIRQPPGKGLEWIGSIYYSGSTYYNPSLKSRVTISVDTSKNQFSLKLSSVTAADTAVYYCVRDYDILTGDEDYWGQGTLVTVSS
VL: DIQMTQSPSSLSASVGDRVSITCRASQGISSWLAWYQQKPEKAPKSLIYAASNLRSGVPSRFSGSGSGTDFTLTISSLQPEDFATYYCQQYYSYPRTFGQGTKVEIK
notes: as for B2
As to B6, in [1], the binding result is listed as “no binding (tested: 20 µg/ml)”. The binding result in [3] is recorded as “no binding (tested: 20 µg/ml)”. Moreover, the “EC50 (read off the curve)” value in [4] was ~10 nM. The binding result in [6] is reported as “no binding (tested: 20 µg/ml)”. Further, in test [7], the Kd worked out at 0.13 nM, the koff came to 9.9e-06 s⁻¹ and the on-rate (kon) is 76000 M⁻¹ s⁻¹. Moreover, in [12], the “IC50 (read off the curve)” value was ~8 nM.

B7: anti-PD-1 human monoclonal antibody 5F4 (antibody, V domains shown)
VH: B6 VH with T23S, F34Y, G51A, Y54F, S58E, Y61F, K77R, V98A
VL: B6 VL with S20T, N53S, R55Q
notes: as for B2
For the molecule B7, the binding result in [9], in test [10] and in [11] was “no binding (tested: 20 µg/ml)” throughout.

The EC50 (read off the curve) is the concentration needed to bring the measured effect to its halfway point. What is called Kd is a measure of binding affinity in units of concentration. A word on the koff: it is the first-order rate constant of dissociation. Broadly, the kon is the rate constant with which the complex forms.
